Source: PMC4993455 (PLoS ONE, 2016)

Key:
[1] = target: T1, recombinant methionine adenosyltransferase α1 (MATα1) (rat, UniProt P13444 1-397); test: SEC; equimolar purified recombinant MATα1 or MATα2 and GST-PDRG1 incubated 1 hour at 4°C, then Biogel A column (1.5 x 90 cm) in 50 mM Tris/HCl pH 8, 10 mM MgSO4, 50 mM KCl at 4°C; both proteins detected in the pooled activity peaks by Coomassie staining and/or western blotting; conditions: both partners purified
T1 construct: rat MATα1, pSSRL-T7N containing the rat Mat1a ORF; also called pSSRL-T7N; MATα1 homo-oligomers; source: E. coli BL21(DE3) Codon Plus; soluble extract (pull-down)

[2] = target: the molecule itself; test: SEC; analytical gel filtration of nuclear fractions (100 μl) of HEK 293T cells overexpressing HA-PDRG1, FLAG-MATα1 or both on Superose 12 10/300 GL; fractions analysed by dot-blot

Chain of FLAG-MATα1 (P13444 whole entry): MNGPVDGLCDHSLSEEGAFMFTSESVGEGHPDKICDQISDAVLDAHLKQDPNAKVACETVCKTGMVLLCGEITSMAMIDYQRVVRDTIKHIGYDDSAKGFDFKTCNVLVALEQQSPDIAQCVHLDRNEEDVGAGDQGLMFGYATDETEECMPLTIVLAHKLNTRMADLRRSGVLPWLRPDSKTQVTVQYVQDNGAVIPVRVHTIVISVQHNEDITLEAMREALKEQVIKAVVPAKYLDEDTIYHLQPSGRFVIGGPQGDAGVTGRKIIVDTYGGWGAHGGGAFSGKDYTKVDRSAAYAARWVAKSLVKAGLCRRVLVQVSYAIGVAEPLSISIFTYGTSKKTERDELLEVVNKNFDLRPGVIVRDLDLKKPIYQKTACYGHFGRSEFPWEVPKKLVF
T1 sequence (P13444 whole entry): as above

binding result [1]	Binder	stoichiometry N [2]
binds	GST-PDRG1 (natural protein, 9 amino acid linker between GST and PDRG1; rat PDRG1, full ORF (402 bp) in pGEX-5X-1; also called pGEX-PDRG1; tagged-PDRG1; source: E. coli BL21(DE3) Codon Plus; soluble extract loaded on Glutathione-Sepharose (pull-down); purified on Glutathione-Sepharose 4B, eluted with 20 mM GSH (gel filtration, activity); not shown: GST, N-terminal, kept) not shown	–
–	FLAG-MATα1 (enzyme, rat MATα1, pFLAG-MAT containing the rat Mat1a ORF; also called pFLAG-MAT; source: CHO, HEK 293T or COS-7 cells, transiently transfected; in total lysate, nuclear or cytosolic fractions) not shown	4
–	HA-PDRG1 (natural protein, residues between the HA tag and PDRG1; rat PDRG1, full ORF (402 bp); also called pHA-PDRG1; HA-tagged PDRG1; source: CHO, HEK 293T or COS-7 cells, transiently transfected; in total lysate, nuclear or cytosolic fractions; not shown: HA, N-terminal, kept) not shown	6
